Source: patent publication US20190134223A1 (TEMPLE UNIVERSITY OF THE COMMONWEALTH SYSTEM OF HIGHER …, published 2019)

Tests used:
[1] = target: T1, endogenous Gαq in the mouse heart (mouse (endogenous, in the hearts of the …, UniProt P21279 1-359)); assay: anti-FLAG immunoprecipitation from cardiac lysates of TgβARKnt mice 4 weeks after Sham or TAC, western blot with anti-Gαq antibody
T1 construct: Endogenous protein in cardiac lysates, detected by western blot with anti-Gαq antibody; also called Gq; Gaq
T1 sequence (looked up): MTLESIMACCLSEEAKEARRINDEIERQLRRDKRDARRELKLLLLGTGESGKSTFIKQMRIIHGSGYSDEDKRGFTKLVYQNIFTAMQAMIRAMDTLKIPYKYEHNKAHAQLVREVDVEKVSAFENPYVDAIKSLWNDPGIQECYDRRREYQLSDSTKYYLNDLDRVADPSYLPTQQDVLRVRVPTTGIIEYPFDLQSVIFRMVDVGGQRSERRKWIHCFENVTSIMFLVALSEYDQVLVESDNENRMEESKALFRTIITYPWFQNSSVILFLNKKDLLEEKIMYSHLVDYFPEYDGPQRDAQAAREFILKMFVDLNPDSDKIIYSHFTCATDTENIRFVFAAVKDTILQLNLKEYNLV

[2] = target: T2, full-length GRK2 (endogenous, mouse heart) (mouse (endogenous, in the hearts of the …, UniProt Q99MK8 1-689)); assay: anti-FLAG immunoprecipitation from cardiac lysates of TgβARKnt mice 4 weeks after Sham or TAC, western blot
T2 construct: GRK2 in the heart'; also called βARK1
T2 sequence (looked up): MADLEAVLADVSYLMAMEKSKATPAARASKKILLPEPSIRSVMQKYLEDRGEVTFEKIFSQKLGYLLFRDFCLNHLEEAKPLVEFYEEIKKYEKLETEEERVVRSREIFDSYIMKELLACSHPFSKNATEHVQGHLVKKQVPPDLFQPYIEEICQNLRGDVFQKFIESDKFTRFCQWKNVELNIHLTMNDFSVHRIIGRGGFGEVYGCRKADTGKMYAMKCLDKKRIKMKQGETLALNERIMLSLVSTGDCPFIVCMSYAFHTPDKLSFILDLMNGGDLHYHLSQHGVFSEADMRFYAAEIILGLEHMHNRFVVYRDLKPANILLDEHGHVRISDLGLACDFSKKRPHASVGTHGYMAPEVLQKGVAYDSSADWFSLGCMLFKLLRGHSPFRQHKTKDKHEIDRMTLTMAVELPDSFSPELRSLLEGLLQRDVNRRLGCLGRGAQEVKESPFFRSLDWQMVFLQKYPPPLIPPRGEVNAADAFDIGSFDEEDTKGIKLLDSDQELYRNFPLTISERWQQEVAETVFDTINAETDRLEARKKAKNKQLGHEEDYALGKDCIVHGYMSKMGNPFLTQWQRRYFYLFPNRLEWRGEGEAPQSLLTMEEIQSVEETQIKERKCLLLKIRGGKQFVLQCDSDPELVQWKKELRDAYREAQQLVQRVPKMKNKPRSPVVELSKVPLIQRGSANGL

binding result [1]: no binding
binding result [2]: no binding
B1: flag-tagged βARKnt (bovine GRK2 residues 50-145 with a carboxy-terminal flag-tag) (peptide)
chain: RGEVTFEKIFSQKLGYLLFRDFCLKHLEEAKPLVEFYEEIKKYEKLETEEERLVCSREIFDTYIMKELLACSHPFSKSAIEHVQGHLVKKQVPPDL
notes: An initiator Met is not described; also called βARKnt peptide; βARKnt-flag; not shown: carboxy-terminal flag-tag
